Experiments:
Type in all cases: biochemical
[1] = target: T1, PKC-theta (Homo sapiens, UniProt Q04759); assay: In vitro kinase assay: peptide phosphorylation by PKC-theta; conditions: for PKC theta phosphorylation: normalized to best substrate
T1 construct: His-tag; made in house; host or cells: baculovirus-infected Sf9 cells
Summary of the method: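 Recombinant human PKC-theta, expressed in baculovirus-infected Sf9 cells and purified on a nickel chelating column, was incubated with biotinylated peptides, 100 μM ATP containing ^32P-gamma ATP, and PKC buffer with CaCl2, MgCl2, phosphatidyl serine and PMA at 30° C. Reactions were stopped with ATP/EDTA. Peptides were captured on streptavidin-coated plates, and phosphorylation was normalized to the best substrate.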

[2] = target: T2, PKA (Homo sapiens, UniProt P17612); assay: In vitro kinase assay: peptide phosphorylation by PKA; conditions: normalized to best substrate
T2 construct: purchased Calbiochem
Method: (§1) Catalytically active preparations of the kinases of interest were either purchased or prepared. Purchased and tested active kinase preparations including the following: PKC-alpha, PKC-delta, PKC-epsilon, PKC-zeta, PKC-mu, PKA, PKG from Calbiochem, ROK alpha/ROCK-II, active from Upstate Biotechnology, and AKT1 from Panvera.
(§2) The conditions of the kinase assay and the amount of active kinase used varied with the kinase and with the accuracy needed. For a typical experiment, 5-20 ng of kinase was used per well and each peptide pool was assayed in duplicate wells. Note that the absolute amount of kinase used was not usually a critical parameter, because the desired information related to specificity of the kinase not its absolute activity, and robustness of the assay depends on comparisons of the same amount of kinase on different peptides. The combination of kinase concentration and assay duration was modified to assure that the stoichiometry of peptide phosphorylation never exceeded 5%. The choice of kinase buffer depended on the kinase being analyzed. For studies of PKC, 100 mM HEPES, 0.05% Triton-X100, 1 mM CaCl2, 20 mM MgCl2, 0.2 mg/ml phosphatidyl serine (Avanti Polar Lipids), PMA 100 ng/ml was typically used. The lipid stock was prepared by transferring 3 mg phosphatidyl serine into iced mixture of 450 μl water plus 50 μl of 10% Triton-X100, sonicating 10 times on ice for 1 sec each.
(§3) The kinase reaction mixture was assembled by sequential addition to a tube held on ice of: 5 μl peptide (100 μM for final concentration of 10 μM), 15 μl of kinase (typically 5 ng/well, in appropriate kinase buffer), 30 μl of ATP (1 uCi/well of ^32P-gamma ATP in a stock of 167 μM cold ATP in the kinase buffer; for final concentration for 100 μM ATP). The mixture was rapidly warmed to desired reaction temperature (30° C. for PKC) and incubated for the desired duration (usually 10 minutes). The kinase assay was terminated by transfer to 4° C. water batch, and rapid addition of an equal volume (50 μl) of stop solution [0.1M ATP+0.1M EDTA in water, pH 8].
(§4) The peptides were then captured from the reaction mixture by transfer to a Reacti-Bind Streptavidin High Binding Capacity Coated Plates (HBC) (Pierce Biotechnology) as follows. The HBC plates were pre-rinsed three times with PBS/Tween PBS/Tween20 0.05% (PBS/Tween). Part of all of the reaction mixture was then transferred wells of a HBC plate pre-filled with 90 μl of phosphate-buffered saline (PBS); typically each aliquots of each phosphorylation reaction were transferred to duplicate HBC plates to assure accuracy by additional replication
(§5) For kinase assays done at the standard peptide concentration of 10 μM, the peptide concentration in the reaction mixture becomes 5 μM after addition of the stop solution; consequently 10 μl of the reaction (50 pMoles of peptide) was transferred to the HBC plate. More generally, the amount of reaction mixture transferred was estimated to be about 50 pMoles of peptide. […] The HBC plates were incubated for 0.5 to 1.5 hr at room temperature for complete binding of biotinylated peptides to plate-bound streptavidin. The HBC plates were then washed extensively with PBS/Tween. Five washes were done routinely and additional wash steps were added if the wash solution removed from the plate had measurable radioactivity as detected using a Geiger counter. This step is essential to obtaining a good the signal to noise ratio because the fraction of radioactivity incorporated in the peptides was a tiny fraction of the total in the reaction mixture. The wells were air-dried. A volume of 40-50 μl of microScint-20 (Packard Instruments) was added to each well. The plates were covered with stick-on film sheet. Radioactive emissions were measured in a TopCount NXT Microplate Scintillation and Luminescence Counter (Packard Instruments). Typically samples were counted for 5 minutes (or more) to improve the signal to noise ratio when counts were low. […]

[3] = target: T3, AKT1 (Homo sapiens, UniProt P31749); assay: In vitro kinase assay: peptide phosphorylation by AKT1; conditions: normalized to best substrate
T3 construct: purchased Panvera
T3 sequence (P31749 whole entry, species assumed): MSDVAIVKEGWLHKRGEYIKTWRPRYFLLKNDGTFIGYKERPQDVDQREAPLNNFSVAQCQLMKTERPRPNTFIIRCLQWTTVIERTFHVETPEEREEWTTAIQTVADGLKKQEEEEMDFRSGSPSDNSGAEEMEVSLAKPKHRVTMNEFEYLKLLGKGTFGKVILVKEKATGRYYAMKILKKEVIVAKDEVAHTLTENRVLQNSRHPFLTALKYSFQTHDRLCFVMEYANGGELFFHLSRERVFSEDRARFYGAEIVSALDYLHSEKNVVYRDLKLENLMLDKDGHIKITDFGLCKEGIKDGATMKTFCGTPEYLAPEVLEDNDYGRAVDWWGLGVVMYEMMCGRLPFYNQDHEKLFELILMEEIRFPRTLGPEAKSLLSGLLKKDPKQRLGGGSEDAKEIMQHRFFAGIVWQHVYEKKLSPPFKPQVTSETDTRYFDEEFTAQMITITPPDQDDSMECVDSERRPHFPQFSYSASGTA
Method: as §1, §2, §3, §4, §5

T1 sequence (Q04759 whole entry): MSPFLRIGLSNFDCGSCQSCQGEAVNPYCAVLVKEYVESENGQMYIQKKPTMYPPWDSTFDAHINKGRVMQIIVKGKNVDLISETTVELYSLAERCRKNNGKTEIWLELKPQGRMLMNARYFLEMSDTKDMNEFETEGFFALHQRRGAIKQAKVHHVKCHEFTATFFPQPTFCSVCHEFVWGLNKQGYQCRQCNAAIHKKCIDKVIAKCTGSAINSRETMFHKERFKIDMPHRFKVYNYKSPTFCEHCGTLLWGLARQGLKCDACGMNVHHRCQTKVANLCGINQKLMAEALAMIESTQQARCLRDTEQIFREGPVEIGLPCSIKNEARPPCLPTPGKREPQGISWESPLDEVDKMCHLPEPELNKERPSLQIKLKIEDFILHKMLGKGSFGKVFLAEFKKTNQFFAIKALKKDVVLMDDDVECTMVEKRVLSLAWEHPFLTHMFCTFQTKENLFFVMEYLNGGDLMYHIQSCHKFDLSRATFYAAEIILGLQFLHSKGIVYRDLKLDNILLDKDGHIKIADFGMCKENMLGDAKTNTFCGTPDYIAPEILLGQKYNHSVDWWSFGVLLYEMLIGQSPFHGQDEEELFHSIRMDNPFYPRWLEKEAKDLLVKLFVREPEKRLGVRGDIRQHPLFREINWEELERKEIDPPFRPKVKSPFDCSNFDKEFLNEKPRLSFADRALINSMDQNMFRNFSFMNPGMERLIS

Row | Substance | Peptide phosphorylation by PKC-theta ([1]; Table 8) | PKC theta phosphorylation [1] [%] | PKA phosphorylation [2] [%] | AKT1 phosphorylation [3] [%]
1 | 76 (HVRRRRGTFKRSKLRARD) [compound 76] | 99 | 100 | 69 | 100
2 | 77 (KKKKRASFKRKSSKKG) [compound 77] |  | 74 | 4 | 8
3 | 78 (KFARKSTRRSIRLPE) [compound 78] |  | 47 | 5 | 2
4 | 79 (NRKKKRTSFKRKA) [compound 79] |  | 33 | 3 | 7
5 | 80 (KKKKKRFSFKKSFKL) [compound 80] |  | 63 | 3 | 6
6 | 82 (PRLIRRGSKKRPAR) [compound 82] |  | 49 | 10 | 9
7 | 83 (RKIPKRPGSVHRTPSRQ) [compound 83] |  | 92 | 2 | 6
8 | 84 (QKKSRLRRRASQLKI) [compound 84] |  | 87 | 63 | 10
9 | 85 (RFARKGSLRQKNV) [compound 85] |  | 46 | 81 | 10
10 | 86 (RQRKRKLSFRRRTDKD) [compound 86] |  | 38 | 87 | 39
11 | 89 (EYLERRASRRRAV) [compound 89] |  | 60 | 4 | 1
12 | 90 (AQIVKRASLKRGKQ) [compound 90] |  | 38 | 3 | 3
13 | 92 (DGQKRKKSLRKKLD) [compound 92] |  | 47 | 18 | 2
14 | 93 (AARKKRISVKKKQEQ) [compound 93] |  | 40 | 1 | 7
15 | 94 (KLAVGRHSFSRRSGV) [compound 94] |  | 86 | 5 | 9
16 | 95 (KKKFRTPSFLKKSKK) [compound 95] |  | 42 | 2 | 9

Row | Substance | Peptide phosphorylation by PKC-theta ([1]; Table 8) | PKC theta phosphorylation [1] [%] | PKA phosphorylation [2] [%] | AKT1 phosphorylation [3] [%]
17 | 96 (RGFLRSASLGRRASFHLE) [compound 96] |  | 21 | 86 | 32
18 | 99 (AGWRKKTSFRKPKED) [compound 99] |  | 25 | 1 | 6
19 | 100 (WKGKRRSKARKKRK) [compound 100] |  | 56 | 2 | 3
20 | 101 (GAPPRRSSIRNAH) [compound 101] |  | 29 | 100 | 12
21 | 102 (AGSFKRNSIKKIV) [compound 102] |  | 28 | 5 | 6
22 | 103 (LLKKRDSFRTPRDSKLE) [compound 103] |  | 24 | 3 | 7
23 | 104 (EKIKRSSLKKVDSLKK) [compound 104] |  | 25 | 1 | 2
24 | 105 (ALRRPSLRREADD) [compound 105] |  | 21 | 84 | 12
25 | 106 (EILSRRPSYRKILND) [compound 106] |  | 19 | 30 | 12
26 | 107 (QKRHARVTVKYDRRE) [compound 107] |  | 40 | 2 | 3
27 | 108 (KATTKKRTLRKNDRK) [compound 108] |  | 32 | 0 | 1
28 | 109 (KEVVRTDSLKGRRGR) [compound 109] |  | 9 | 1 | 2
29 | 110 (EGGDRRASGRRK) [compound 110] |  | 22 | 1 | 1
30 | 111 (KKKRFSFKKSFKLSGFSFKK) [compound 111] |  | 18 | 3 | 3
31 | 112 (KRPGKKGSNKRPGKR) [compound 112] |  | 17 | 0 | 3
32 | 113 (GENVLKKSMKSRVKG) [compound 113] |  | 10 | 0 | 9

From patent US20050064507A1, “Determining kinase specificity” (priority 2003, published 2005)
